According to the DeepSol protein solubility set:

Assay: soluble on expression in E. coli; label from the status in PepcDB or PDB records

Row | Sequence | soluble on expression in E. coli
1 | MAHHHHHHMPTSSGVDQAKLREVIRVLKSVGHVGMAESLEVEWGMKPNTAAHAKNAKKGRKSLPHKSRESSKARGNSFPSLSSIAVAPSPLQVTSQSRFVVTCIGDEEDLWSPDEDPADAKRCIAPLFDYGAGLLRDHYAEYAAHPVSFVSVHPYEKQQPPSNLPWRHFELKVFYEAGKTGSEEKKEFELVKGDLIGGRYHVDAPIDAATFSRTVRCYDEQTGQPVCLKIIRNSKTFLDQGLDELRALTCVNDAGDADACCVVRLLDYFYFREHLVLVTELLFDNLYEYARKLDIVERCAYFTLARLQRIVRQVLTALKLIHSVNLIHCDIKPENIAFKSVSDCDVKVLDLGSSCYMTDTLSSYVQSRSYRAPEVILGCKYGPAVDIWSLGATAAELATGTVLFNVESVPTMLASIASVCGPIPAEMLQEGRNTSLYVTQHGAFYDYEDEQLVFHFPSEPPDAAVLFGFDDHDYVDFVRLCLTLDAALRPSAAQLLDHPFLTKTYTD | not soluble
2 | ARFMAVSSELKDDTRTYTVAGQVFFASSDRFMSHFDFREAVERVVIDVTHAHFWDITSVSALDRVVIKFRREGTEVEIKGMNDATRTLVDRFGVHDKPEEVEKLMGGH | not soluble
3 | MAHHHHHHMKKRTPLVGKRSYFTSLYDTKTEKTKLISEMDDLYDHILTSNWNDSVHLVLNVSIWEGILHSIEARIKPYEQDEDILKKKKMINEMFDVLFILEDLRDHVNELLEQSSRASGLAGTYILASFKIENMVEHIEFLKAKYDELLLKYPLYKYQIDMVLGKGLALLRQRYTFEWRHMHDFFF | not soluble
4 | MESPNMNQPKINSTAGCALPPPNEMILKWAAERPNEVYLKQIINRQFVEFTYAEVADQALKLVSALRGLGIQPGDKVALVSKNCAE | not soluble
5 | MFDTKIAVILRDDLAVWQKLNVTAFLMSGIVAQTGEIIGEPYRDGAGNVYNPLSIQPIVVMATDQEALRKIHQRSLERDITTSLYIEEMFATGHDAANRQVFSHFSPDTAKVVGMALRADRKIVDKITKGAKLHA | soluble
6 | MFLNTNEILDYSALKYMPNLKSLTVANAKIKDPSFFANLKQLNHLALRGNEFSDVTPLVKMDHLDSLDLSNNKITNVAPLIEMKNVKSLYLSGNQIEDVTALAKMEQLDYLNLANNKITNVAPLSALKNVTYLTLAGNQIEDIKPLYSLPLTDLVLTRNKVKDLSGIEQMKQLEELWIGKNEIKDVTPLSKMTQLKQLHLPNNELKDITPLSSLVNLQKLDLEANYISDLTPASNLKKLVFLSFVANEIRDVRPVIELSKTAYINVQNQKVFLEETEVNKEVKVPIYEKDGKISTKIRLKGEGGTYSNDAVKWSTPGEKVYEFGVKDPFADTGIFFTGSVIQNVVESKADNTSKEDNTSKEDAKVEVVEFKDVPKGHWSEEAIHYLAKENIFKGYGNGQFGFGDSITRGQVASLVQRYLKLENKVEQKERFTDTKGHMFEQDIATVAQAGIMQGDGTGEFRPDGVLTRYEMSVVLYKVFQLKEDGNNKVNFKDVPTGHWAEGYVKALVDNNISKGDGKERFLGDDFVTREQYAQFLYNAITK | not soluble
7 | MDHRRLWRAANRLASDRLGSGEMCCALTSPTSTAQSPSTSFFFGSSLPFLLATIPHTLISAIAEHAILHAWYGGPHVYPDAKLPCPTATFVFKDSPLLRVDDVTSLQWDRAQAANFLVAVLRQPAVQKELRQRLWSAVQNCHRGVLRKLESLAVQKDVEGASKEAAADRLILLDQEPGMPSPPSLSLREVRDDLFSFDELLYFVRVSPSTSSTSRQQRVECESLRSTHLFRFVTSRADVAAALRDRPRSNVSDLLFCVSLRNGDTSAKASSAPVSLSTRDKLWLLLSEMVRLRYLVAYLLNFEVMLHRVRNSTRHSQRGQSTSKEVDSAGFPGNSSSEHADAQDAENAKCIAAVFRFLDIRLHTRLAVSPHHRRFLRHARVRHCERSATPEPPDRATAAHEATDADTSVRHEARRYATVQELFSAFSKALEESTTPPSQLPATVASFTSLAKSPGEGQGAAENGIEAMSKRPDHMRGRSARQNVVQARATSDGPSSLSDTDDEFLKAIVSATRQDQPPDSTVQSTPMRATHRGGVKSPSANPGELPCSRGLPGRRCLTAERSTTCLPQSRRAAEDPHPFVDVVFERKSNRSKWPFQALRARTNASNFKVRFGGSHDASSHAAVICFQLSCTREEREKAEIAPLSGKSAADLLQQYPYVTHVNGISARKVELVVRLFRSAHVLKLRLARRPPDR | soluble
8 | MSLSFLKHVQDCNTHDLSNFVRFVIEGRRVGWVRKALAQRLKAHGRVFDVTRDAVLLSASLRTPQSRTRAVADVVDRLADEGVVPAPRGELYRVNQSWGEPTLMLLDRAVVPTFGVRAYGVHLNGYVGAGADLHLWIGRRSPDKSVAPGKLDNMVAGGQPADLSLRQNLIKECAEEADLPEALARQAIPVGAITYCMESPAGIKPDTLFLYDLALPEDFRPHNTDGEMADFMLWPAAKVVEAVRTTEAFKFNVNLTVIDFAIRHGLIDPDNEGHHHHHH | not soluble
9 | MAQSKHGLTKEMTMKYRMEGCVDGHKFVITGEGIGYPFKGKQAINLCVVEGGPLPFAEDILSAAFNYGNRVFTEYPQDIVDYFKNSCPAGYTWDRSFLFEDGAVCICNADITVSVEENCMYHESKFYGVNFPADGPVMKKMTDNWEPSCEKIIPVPKQGILKGDVSMYLLLKDGGRLRCQFDTVYKAKSVPRKMPDWHFIQHKLTREDRSDAKNQKWHLTEHAIASGSALP | soluble
10 | MAHHHHHHMMNTSLLGQDVDEIQSAVDRWYHQSSSNLQASHAAFTAQLRQLQERLGLDPGAPTLSAHVDAMITPPRHMYLSDDNNSGSPPMASPPISRGQLNYDHLLDEVINKGASMPPFNPEEEAERRRRPNAESVRAPSTPPEDCNGPCQVLVEFKRKRVLQYESPYYVAPGEHVVVGGDRGEDIGLVTHSWRDAEAHQLGENRDKGVGKVLRVASVLEVTQLQGVQTELETRAVEVAQEKVQESGLPMRIVDAEYQFDRRKLTFYYQSMHRLDFRTLVRDLYKTFRARIWMEPDTSS | soluble
11 | GSYCPRNLHLLPTTDTYLSKVSDDPDNLEDVDDEELNAHLLNEEASKLKERIWIGLNADFLLEQESKRLKQE | soluble
12 | MGSDKIHHHHHHMLSMKNIVGKPQTIKKVNEDLIKNIIKNEGPITKPEISSITELSLATVNKIVEQLALKNEVKVSGLSESTGGRRAQLFEINANLEHIIALYYYRNCCIGVVANLLGEIIYQEEFNIRMDTYENVNQDTFFVIDTLIKKEKGNNIRAIGIGVPGVVKKGVVKNIPTIKSWEGINLENLIKSKYNTKVFIENDTNITTIGIYQKQYKDKYKNMALMYLEDGIGSGIVINGELYLGSTNFAGELSYLNIEFGKYNSNNLNLEDYIMSLRKRYLESKDNKFKKEILSIISNFIRTLVCVLNPQAMIIQCSILTKSDMEFIEKDVSNNVGEENFPKLIKVESLREGSINGVISMCLKETDYQYSLSNKKGGY | not soluble
13 | MGSDKIHHHHHHMKTVLDVKNLSVDFAQDGRIVHAVRGVSFHVGKGETVALVGESGSGKSVTALSSVDLLPPSAQLNGSITYNGEQMIGASEAALRRVRGNDISFIFQEPMTSLNPLHTLERQITESLTLHQGLRGQAARDRIIQLLTKVGIRDPETRLGAYPHQLSGGQRQRVMIAMALANGPELLIADEPTTALDVTIQAQILDLLAELKRRERMSLLFITHDLAIVRRIADRVCVMQGGEIVEQGPTKTIFDNPQHPYTQKLLGAEPSGRPDPVPEDAKEILTTDKLRIWFPIQRGLLRRTVGHVKAVNEATLSVRQGETLGVVGESGSGKTTLALAIMRLIRSEGPIDFMDQHIPSLGKTELRTLRRDIQIVFQDPFGSLSPRMTIEQIVAEGLTVQGVNSTGRRRRVSEILEEVGLDPAMMHRYPHEFSGGQRQRIAIARAMILRPKLVVLDEPTSALDMTVQVQIVDLLRRLQRDHKLAFLFISHDLKVVRALSHKVMVMKQGDVVEAGRTEDLFANPRTTYTRELMKAAFGDASAA | not soluble
14 | GSPEFMALTQSLKLSNGVMMPVLGFGMWKLQDGNEAETATMWAIKSGYRHIDTAAIYKNEESAGRAIASCGVPREELFVTTKLWNSDQGYESTLSAFEKSIKKLGLEYVDLYLIHWPGKDKFIDTWKAFEKLYADKKVRAIGVSNFHEHHIEELLKHCKVAPMVNQIELHPLLNQKALCEYCKSKNIAVTAWSPLGQGHLVEDARLKAIGGKYGKTAAQVMLRWEIQAGVITIPKSGNEARIKENGNIFDFELTAEDIQVIDGMNAGHRYGPDPEVFMNDF | soluble
15 | MKFCSQCGGEVILRIPEGDTLPRYICPKCHTIHYQNPKVIVGCIPEWENKVLLCKRAIAPYRGKWTLPAGFMENNETLVQGAARETLEEANARVEIRELYAVYSLPHISQVYMLFRAKLLDLDFFPGIESLEVRLFGEQEIPWNDIAFRVIHDPLKRYMEERHHGQPAFHLGIINKPQAGSNSNE | soluble
16 | MGSDKIHHHHHHMSNPLLKQICELDVFTLLVFKTIFDTGHANSAAKALDVSAPKISRCLNALRLTFNDELFYRRQQGLKPTPLAESLYAAICQFTNSVYNLEQSALQIQNTHNTTDLPLHIAVSNELLSFLAPQLSSPDVITQLGKIRLHKWQENSAELIHAGELDFGITLENADNKELSYTRLGCISGIYVVASKHHPIWQTELSITLEHICRHPFLCLDLKGFNSKVDPLEFFCQRQGILLPSIDRVIDREEWYAHLLTIQSVAFCSSIDMHTVKHMPGLKLVPLSLTELHRLHDSMLPPQYYLVEKPRARRRYSQTQCDIVVSPLITTLIPTL | not soluble
17 | MGSDKIHHHHHHMSDKLSQEQIDALLSQMSEGKVVDESTEIGDFGRFHPYDFHKPEKFGAEHLESLKTIASAFTKKSMEFVSQRIRIPIHTEATLADQVSFASGYIETMPNDSYIFCIIDLGNPELGQIIIELDLAYIIYIHECLSGGNPKRKLSERRLLSVFEELTLKSILEKFCEALKDSFKSVHPISPEIVNIETNPALLRVTSPNDMMALVSVDIKSEFWISTMRIGVPFFSVEEIMNKLENVVEYTFDKRRNFDAEVEQELHQVEKEARIRVGEIKTTWKELNMLEVGDVLLTETHIRDTLKGYVTEKWKFECYMGKSGNQKAVKFMRHTGRTEQER | not soluble
18 | LQMTQSPSFLSASVGDRVSITCRASQDIQKFLAWYQLTPGDAPKLLMYSASTLQSGVPSRFSGSGSGTEFTLTISGLQPEDFATYYCQHLKRYPYTFGQGTKLEISRTVAAPSVFIFPPSDEQLKSGTASVVCLLNNFYPREAKVQWKVDNALQSGNSQESVTEQDNKDSTYSLSSTLTLSKADYEKHKVYACEVTHQGLSSPVTKSFNRGEC | soluble
19 | MLMNEFEKACETLRKFMAYMLEKDMKSWTELWDENAVFEFPYAPEGSPKRIEGKAAIYDYIKDYPKQIHLSSFTAPTVYRSADSNTVIAEFQCDGHVIETGLPYRQSYISVIETRDGRIVRYRDYWNPLVVKEAFGGSFLQTEESGK | soluble
20 | MSLNFDSLLLDIDGTLILKGQPLPGAAEALSFARAQGLRLQLLTNTTAKMPEALAQELCQAGIEVVPDEIQTATTACVGYLQQHAQLKCHLLVPDSIRAAFNGILTDDTNPDVVVISDIGEAFDYATLNRCFRMLRGGARLIALQKNLFWFDRDGERLDCGAFIVGLEAAAQVQALVMGKPSPMFFEAALRKLDTCASRTLVVGDDVLTDCAGAKAVGASSLLVRTGKYDLALFDAHRHNVGAVIDGIADFPRWWASGNTADRHDEGHHHHHH | soluble
21 | SAHSKTRTNDGKITYPPGVKEISDKISKEEMVRRLKMVVKTFMDMDQDSEEEKELYLNLALHLASDFFLKHPDKDVRLLVACCLADIFRIYAPEAPYTSPDKLKASTDLNNSKIDRYFDLSF | soluble
